Results reported in US20090181003A1, “Regulation of S6 Kinsase Protein Activity and Related Methods” (priority 2005, published 2009).

Key:
recombinant S6K1 = assay: In vitro acetylation with 14C labelled acetyl coenzyme A, S6K1; assay type: biochemical; settings: 1 μg recombinant S6K1, HAT buffer with 14C AcCoA
Method: (§1) In FIG. 2A, recombinant S6 kinases were acetylated in vitro using the purified acetyltransferase domain of p300 or full length PCAF and ^14C-labelled acetyl CoA. Proteins were resolved by SDS-PAGE and acetylated proteins were analysed by phosphorimaging (Bio-rad). In FIG. 2B, recombinant S6K2 or GST were subject to in vitro acetylation reactions with p300 and 14C AcCoA. Recombinant PKB/Akt, PKCa, PDK1 and PI3K (p85a/p110a) were purified using baculovirus expression system. In vitro acetylation assay was carried out as previously described. In FIG. 2D, HEK 293 cells were transfected with S6 kinases in the absence or presence of Gal4-p300 as shown. Cells were treated with medium containing either solvent control or TSA to a final concentration of 660 nM for twelve hours prior to harvesting. Recombinant S6 kinases were immunoprecipitated using the EE-antibody and acetylated S6 kinase was detected by western blotting with polyclonal acetylated lysine antibodies (Upstate). The level of immunoprecipitated S6K1 and S6K2 was analysed by reprobing the membranes with specific antibodies. The expression of Gal4-p300 was tested in total lysates using anti-Gal4 antibodies.
(§2) Since S6Ks can interact with a region within, or adjacent to the acetyltransferase domain of p300 we hypothesized that they may in fact be targeted by its enzymatic activity. […] We detected weak, but reproducible acetylation of PKCa.

S6K2 = biological target: T1, S6K2 (Homo sapiens, UniProt Q9UBS0); assay: In vitro GST pulldown of p300 GST-fusion fragments with recombinant S6K2; assay type: binding; settings: GST fusion proteins on glutathione beads, highly purified recombinant S6K2
T1 construct: made in house; GST-p300 fragments: bacteria
T1 sequence (Q9UBS0 with tags, fused parts or gaps A420V): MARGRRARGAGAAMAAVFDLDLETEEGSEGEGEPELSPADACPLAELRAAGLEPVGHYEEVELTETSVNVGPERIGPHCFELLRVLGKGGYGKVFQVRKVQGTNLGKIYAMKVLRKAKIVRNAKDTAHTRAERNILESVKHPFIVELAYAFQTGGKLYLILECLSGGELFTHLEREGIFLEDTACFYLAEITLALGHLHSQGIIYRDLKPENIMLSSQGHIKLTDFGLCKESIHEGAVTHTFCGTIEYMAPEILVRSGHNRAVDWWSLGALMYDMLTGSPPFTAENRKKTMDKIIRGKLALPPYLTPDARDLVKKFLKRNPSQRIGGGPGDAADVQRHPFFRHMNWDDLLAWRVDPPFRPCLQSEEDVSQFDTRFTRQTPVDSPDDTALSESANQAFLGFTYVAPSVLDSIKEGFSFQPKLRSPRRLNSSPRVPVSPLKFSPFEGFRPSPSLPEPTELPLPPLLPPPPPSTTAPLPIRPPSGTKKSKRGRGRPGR
Source text: In FIG. 1A, S6K1 and S6K2 were immunoprecipitated from MCF-7 cells using polyclonal antibodies or pre-immune serum control. Co-immunoprecipitated p300 was detected by western blotting with specific antibody. In FIG. 1B, 293 cells were cotransfected with either EE-S6K1 and Gal4-p300 or empty vector and Gal4-p300. S6K1 was immunoprecipitated using anti-EE antibody and associated p300 was detected by western blotting with anti-Gal4 antibody. Input: approximately ten percent of soluble lysate. In FIG. 1C, NIH-3T3 cells were transfected with empty vector or EE-S6K2. Anti-EE immunoprecipitates were subjected to western blotting with anti-p300 antibody. Input: approximately one percent of soluble lysate. […] Endogenous S6K1 and S6K2 were immunoprecipitated from MCF-7 cells using polyclonal antibodies. Associated P/CAF was detected by western blotting with polyclonal antibodies (Upstate). In FIG. 1E, the full length p300 was used to produce several GST-fusion fragments as shown (Hasan et al. (2001) Mol. Cell. 7, 1221-1231). Expressed fusion proteins were coupled to glutathione beads and used in an in vitro GST pulldown assay with recombinant S6K2. After extensive washing, bound S6K2 was detected by western blotting. […]

recombinant S6K2 = assay: In vitro acetylation with 14C labelled acetyl coenzyme A, S6K2; assay type: biochemical; settings: 1 μg recombinant S6K2, HAT buffer with 14C AcCoA
Method: as §1, §2

B1: p300 domain 4: active domain of p300 acetyltransferase, amino acid 1,459 to 1,892 (SEQ ID NO: 6), contains part of the acetyltransferase domain (protein, listed as Homo sapiens)
chain: KPKRLQEWYKKMLDKAVSERIVHDYKDIFKQATEDRLTSAKELPYFEGDFWPNVLEESIKELEQEEEERKREENTSNESTDVTKGDSKNAKKKNNKKTSKNKSSLSRGNKKKPGMPNVSNDLSQKLYATMEKHKEVFFVIRLIAGPAANSLPPIVDPDPLIPCDLMDGRDAFLTLARDKHLEFSSLRRAQWSTMCMLVELHTQSQDRFVYTCNECKHHVETRWHCTVCEDYDLCITCYNTKNHDHKMEKLGLGLDDESNNQQAAATQSPGDSRRLSIQRCIQSLVHACQCRNANCSLPSCQKMKRVVQHTKGCKRKTNGGCPICKQLIALCCYHAKHCQENKCPVPFCLNIKQKLRQQQLQHRLQQAQMLRRRMASMQRTGVVGQQQGLPSPTPATPTTPTGQQPTTPQTPQPTSQPQPTPPNSMPPYLPRTQA
modifications: GST fusion partner
acetylation of S6K1 (14C acetyl incorporation) (recombinant S6K1): acetyl groups were indeed incorporated
binding of S6K2 to p300 domains (S6K2): selective binding
acetylation of S6K2 (14C acetyl incorporation) (recombinant S6K2): acetyl groups were indeed incorporated
